From patent publication US20050152898A1 (BIOVATION, published 2005)

T1: CD52 human leukocyte antigen (human, UniProt P31358 25-36)
T1 construct: whole, on cells; also called CD52 antigen
T1 chain (looked up): GQNDTSQTSSPS


Target: T1, CD52 human leukocyte antigen
Test: FACS on HUT-78 cells (CD52+), FITC anti-human IgG Fc, median fluorescence, 4-parameter fit; titre = 50% of maximum binding
Description: Human T-cell lymphoma cell line HUT-78 is CD52 positive and was used to assess binding of the modified antibodies of the present invention. In the present example, different concentrations of test antibody were incubated with the cells and the amount of bound antibody was assessed following incubation with a fluorescent-labelled reporter reagent. The reporter is measured using a fluorescence activated cell sorter (FACS).
For detection, the cells were incubated for 1 hour on ice with a 1:1000 dilution of FITC-labelled anti-human IgG Fc domain. This reagent is a goat anti-human IgG (Fc specific) obtained from Sigma (Poole, UK). The cells were washed as previously and re-suspended in 100 μl of PBS/2% FBS and transferred to 4 ml FACS tubes (Becton Dickinson) containing 900 μl of PBS/2% FBS/Propidium Iodide (1:1000). The cells were analysed using a conventional Becton Dickenson FACS Calibur instrument.
The binding of the test and control antibodies was determined using the Median Fluorescence value. The saturating concentration of antibody was determined from plots of the Median Fluorescence—Zero Antibody Median Fluorescence versus Concentration of antibody. The binding curves were fitted to a logistic 4 parameter sigmoidal equation using SigmaPlot, giving an excellent fit with 95% confidence levels.

Binder | EC50 [µg/mL]
DIVH2/DIVK2 (antibody, human IgG1, V domains shown, also called DIVH2IDIVK2; DIVHv2/DIVKv2) VH: EVQLLESGGGLVQPGGSLRLSCAGSGFTFTDFYMNWIRQPPGKAPEWIGFIRDKAKGYTTEYNPSVKGRFTISRDNSKNTLYLQMNSLRAEDTAVYYCAREGHTAAPFDYWGQGTLVTVSS VL: DIQMTQSPSSLSASVGDRVTITCKASQNIDKYLNWYQQKPGKAPKLLIYNTNNLQTGVPSRFSGSGSGTDFTLTISSLQPEDIATYYCLQHISRPRTFGTGTKLELK | 3.7
DIVH2/DIVK1 (antibody, human IgG1, V domains shown, also called DIVHv2/DIVKv1) VH: EVQLLESGGGLVQPGGSLRLSCAGSGFTFTDFYMNWIRQPPGKAPEWIGFIRDKAKGYTTEYNPSVKGRFTISRDNSKNTLYLQMNSLRAEDTAVYYCAREGHTAAPFDYWGQGTLVTVSS VL: DIQMTQSPSSLSASVGDRVTITCRASQNIDKYLNWYQQKPGKAPKSLIYNTNNLQSGVPSRFSGSGSGTDFTLTISSLQPEDIATYYCLQHISRPRTFGTGTKLELK | 5.56
DIVH1/DIVK2 (antibody, human IgG1, V domains shown, also called DIVHv1/DIVKv2) VH: EVQLLESGGGLVQPGGSLRLSCAGSGFTFTDFYMNWVRQAPGKGLEWVGFIRDKAKGYTTEYNPSVKGRFTISRDNSKNTLYLQMNSLRAEDTAVYYCAREGHTAAPFDYWGQGTLVTVSS VL: DIQMTQSPSSLSASVGDRVTITCKASQNIDKYLNWYQQKPGKAPKLLIYNTNNLQTGVPSRFSGSGSGTDFTLTISSLQPEDIATYYCLQHISRPRTFGTGTKLELK | 1.66
DIVH1/DIVK5 (antibody, human IgG1, V domains shown, also called DIVHv1/DIVKv5) VH: EVQLLESGGGLVQPGGSLRLSCAGSGFTFTDFYMNWVRQAPGKGLEWVGFIRDKAKGYTTEYNPSVKGRFTISRDNSKNTLYLQMNSLRAEDTAVYYCAREGHTAAPFDYWGQGTLVTVSS VL: DIQMTQSPSSLSASVGDRVTITCKASQNIDKYLNWYQQKPGKSPKLLIYNTNNLQTGVPSRFSGSGSGTDFTLTISSLQPEDIATYYCLQHISRPRTFGTGTKLELK | 1.85
DIVH1/DIVK1 (antibody, human IgG1, V domains shown, also called DIVHv1/DIVKv1) VH: EVQLLESGGGLVQPGGSLRLSCAGSGFTFTDFYMNWVRQAPGKGLEWVGFIRDKAKGYTTEYNPSVKGRFTISRDNSKNTLYLQMNSLRAEDTAVYYCAREGHTAAPFDYWGQGTLVTVSS VL: DIQMTQSPSSLSASVGDRVTITCRASQNIDKYLNWYQQKPGKAPKSLIYNTNNLQSGVPSRFSGSGSGTDFTLTISSLQPEDIATYYCLQHISRPRTFGTGTKLELK | 2.99
DIVH2/DIVK3 (antibody, human IgG1, V domains shown, also called DIVHv2/DIVKv3) VH: EVQLLESGGGLVQPGGSLRLSCAGSGFTFTDFYMNWIRQPPGKAPEWIGFIRDKAKGYTTEYNPSVKGRFTISRDNSKNTLYLQMNSLRAEDTAVYYCAREGHTAAPFDYWGQGTLVTVSS VL: DIQMTQSPSSLSASVGDRVTITCRASQNIDKYLNWYQQKPGKAPKLLIYNTNNLQSGVPSRFSGSGSGTDFTLTISSLQPEDIATYYCLQHISRPRTFGTGTKLELK | 3.89
DIVH1/DIVK4 (antibody, human IgG1, V domains shown, also called DIVHv1/DIVKv4) VH: EVQLLESGGGLVQPGGSLRLSCAGSGFTFTDFYMNWVRQAPGKGLEWVGFIRDKAKGYTTEYNPSVKGRFTISRDNSKNTLYLQMNSLRAEDTAVYYCAREGHTAAPFDYWGQGTLVTVSS VL: DIQMTQSPSSLSASVGDRVTITCKASQNIDKYLNWYQQKPGKAPKSLIYNTNNLQTGVPSRFSGSGSGTDFTLTISSLQPEDIATYYCLQHISRPRTFGTGTKLELK | 3.45
DIVH2/DIVK4 (antibody, human IgG1, V domains shown, also called DIVHv2/DIVKv4) VH: EVQLLESGGGLVQPGGSLRLSCAGSGFTFTDFYMNWIRQPPGKAPEWIGFIRDKAKGYTTEYNPSVKGRFTISRDNSKNTLYLQMNSLRAEDTAVYYCAREGHTAAPFDYWGQGTLVTVSS VL: DIQMTQSPSSLSASVGDRVTITCKASQNIDKYLNWYQQKPGKAPKSLIYNTNNLQTGVPSRFSGSGSGTDFTLTISSLQPEDIATYYCLQHISRPRTFGTGTKLELK | 6.21
DIVH1/DIVK3 (antibody, human IgG1, V domains shown, also called DIVHv1/DIVKv3) VH: EVQLLESGGGLVQPGGSLRLSCAGSGFTFTDFYMNWVRQAPGKGLEWVGFIRDKAKGYTTEYNPSVKGRFTISRDNSKNTLYLQMNSLRAEDTAVYYCAREGHTAAPFDYWGQGTLVTVSS VL: DIQMTQSPSSLSASVGDRVTITCRASQNIDKYLNWYQQKPGKAPKLLIYNTNNLQSGVPSRFSGSGSGTDFTLTISSLQPEDIATYYCLQHISRPRTFGTGTKLELK | 1.71

Second part, the binder after the results:

EC50 [µg/mL] | Binder
1.59 | DIVH4/DIVK2 (antibody, human IgG1, V domains shown, also called DIVHv4/DIVKv2) VH: EVQLLESGGGLVQPGGSLRLSCAGSGFTFTDFYMNWVRQAPGKGLEWVGFIRDKAKGYTTEYNPSVKGRFTISRDNAKNSLYLQMNSLRAEDTAVYYCAREGHTAAPFDYWGQGTLVTVSS VL: DIQMTQSPSSLSASVGDRVTITCKASQNIDKYLNWYQQKPGKAPKLLIYNTNNLQTGVPSRFSGSGSGTDFTLTISSLQPEDIATYYCLQHISRPRTFGTGTKLELK
1.18 | DIVH2/DIVK5 (antibody, human IgG1, V domains shown, also called DIVHv2/DIVKv5; CAMPATH-1G DIVHv2/DIVKv5) VH: EVQLLESGGGLVQPGGSLRLSCAGSGFTFTDFYMNWIRQPPGKAPEWIGFIRDKAKGYTTEYNPSVKGRFTISRDNSKNTLYLQMNSLRAEDTAVYYCAREGHTAAPFDYWGQGTLVTVSS VL: DIQMTQSPSSLSASVGDRVTITCKASQNIDKYLNWYQQKPGKSPKLLIYNTNNLQTGVPSRFSGSGSGTDFTLTISSLQPEDIATYYCLQHISRPRTFGTGTKLELK
2.45 | DIVH5/DIVK2 (antibody, human IgG1, V domains shown, also called DIVHv5/DIVKv2) VH: EVQLLESGGGLVQPGGSLRLSCAGSGFTFTDFYMNWIRQPPGKAPEWLGFIRDKAKGYTTEYNPSVKGRFTISRDNSKNTLYLQMNSLRAEDTAVYYCAREGHTAAPFDYWGQGTLVTVSS VL: DIQMTQSPSSLSASVGDRVTITCKASQNIDKYLNWYQQKPGKAPKLLIYNTNNLQTGVPSRFSGSGSGTDFTLTISSLQPEDIATYYCLQHISRPRTFGTGTKLELK
4.05 | DIVH5/DIVK4 (antibody, human IgG1, V domains shown, also called DIVHv5/DIVKv4) VH: EVQLLESGGGLVQPGGSLRLSCAGSGFTFTDFYMNWIRQPPGKAPEWLGFIRDKAKGYTTEYNPSVKGRFTISRDNSKNTLYLQMNSLRAEDTAVYYCAREGHTAAPFDYWGQGTLVTVSS VL: DIQMTQSPSSLSASVGDRVTITCKASQNIDKYLNWYQQKPGKAPKSLIYNTNNLQTGVPSRFSGSGSGTDFTLTISSLQPEDIATYYCLQHISRPRTFGTGTKLELK
17.8 | DIVH3/DIVK2 (antibody, human IgG1, V domains shown, also called DIVHv3/DIVKv2) VH: EVKLQESGGGLVQPGGSMRISCSGSGFTFTDFYMNWIRQPPGKGPEWIGFIRDKAKGYTTEYNPSVKGRFTISRDNTQNTLHLQANTLRAEDTAVYYCAREGHTAAPFDYWGQGTTVTVSS VL: DIQMTQSPSSLSASVGDRVTITCKASQNIDKYLNWYQQKPGKAPKLLIYNTNNLQTGVPSRFSGSGSGTDFTLTISSLQPEDIATYYCLQHISRPRTFGTGTKLELK
8.54 | DIVH4/DIVK4 (antibody, human IgG1, V domains shown, also called DIVHv4/DIVKv4) VH: EVQLLESGGGLVQPGGSLRLSCAGSGFTFTDFYMNWVRQAPGKGLEWVGFIRDKAKGYTTEYNPSVKGRFTISRDNAKNSLYLQMNSLRAEDTAVYYCAREGHTAAPFDYWGQGTLVTVSS VL: DIQMTQSPSSLSASVGDRVTITCKASQNIDKYLNWYQQKPGKAPKSLIYNTNNLQTGVPSRFSGSGSGTDFTLTISSLQPEDIATYYCLQHISRPRTFGTGTKLELK
4.01 | DIVH5/DIVK1 (antibody, human IgG1, V domains shown, also called DIVHv5/DIVKv1) VH: EVQLLESGGGLVQPGGSLRLSCAGSGFTFTDFYMNWIRQPPGKAPEWLGFIRDKAKGYTTEYNPSVKGRFTISRDNSKNTLYLQMNSLRAEDTAVYYCAREGHTAAPFDYWGQGTLVTVSS VL: DIQMTQSPSSLSASVGDRVTITCRASQNIDKYLNWYQQKPGKAPKSLIYNTNNLQSGVPSRFSGSGSGTDFTLTISSLQPEDIATYYCLQHISRPRTFGTGTKLELK
4.43 | DIVH4/DIVK1 (antibody, human IgG1, V domains shown, also called DIVHv4/DIVKv1) VH: EVQLLESGGGLVQPGGSLRLSCAGSGFTFTDFYMNWVRQAPGKGLEWVGFIRDKAKGYTTEYNPSVKGRFTISRDNAKNSLYLQMNSLRAEDTAVYYCAREGHTAAPFDYWGQGTLVTVSS VL: DIQMTQSPSSLSASVGDRVTITCRASQNIDKYLNWYQQKPGKAPKSLIYNTNNLQSGVPSRFSGSGSGTDFTLTISSLQPEDIATYYCLQHISRPRTFGTGTKLELK
2.28 | DIVH4/DIVK3 (antibody, human IgG1, V domains shown, also called DIVHv4/DIVKv3) VH: EVQLLESGGGLVQPGGSLRLSCAGSGFTFTDFYMNWVRQAPGKGLEWVGFIRDKAKGYTTEYNPSVKGRFTISRDNAKNSLYLQMNSLRAEDTAVYYCAREGHTAAPFDYWGQGTLVTVSS VL: DIQMTQSPSSLSASVGDRVTITCRASQNIDKYLNWYQQKPGKAPKLLIYNTNNLQSGVPSRFSGSGSGTDFTLTISSLQPEDIATYYCLQHISRPRTFGTGTKLELK
2.39 | DIVH4/DIVK5 (antibody, human IgG1, V domains shown, also called DIVHv4/DIVKv5) VH: EVQLLESGGGLVQPGGSLRLSCAGSGFTFTDFYMNWVRQAPGKGLEWVGFIRDKAKGYTTEYNPSVKGRFTISRDNAKNSLYLQMNSLRAEDTAVYYCAREGHTAAPFDYWGQGTLVTVSS VL: DIQMTQSPSSLSASVGDRVTITCKASQNIDKYLNWYQQKPGKSPKLLIYNTNNLQTGVPSRFSGSGSGTDFTLTISSLQPEDIATYYCLQHISRPRTFGTGTKLELK
2.55 | DIVH5/DIVK3 (antibody, human IgG1, V domains shown, also called DIVHv5/DIVKv3) VH: EVQLLESGGGLVQPGGSLRLSCAGSGFTFTDFYMNWIRQPPGKAPEWLGFIRDKAKGYTTEYNPSVKGRFTISRDNSKNTLYLQMNSLRAEDTAVYYCAREGHTAAPFDYWGQGTLVTVSS VL: DIQMTQSPSSLSASVGDRVTITCRASQNIDKYLNWYQQKPGKAPKLLIYNTNNLQSGVPSRFSGSGSGTDFTLTISSLQPEDIATYYCLQHISRPRTFGTGTKLELK
